Conditions in all cases: none (in vitro transcript); 20 mM Tris-HCl pH 8, 50 mM NaCl, 1 mM MgCl2; 5 nM tRNA, 30 min incubation; temperature not stated
In series [1] the test system is EPRS linker (whole linker) (human). Description: fluorescence quenching.
In series [2] the test system is EPRS linker R1R2 (human). Description: fluorescence anisotropy.
Series [3] has as its system EPRS linker R1R2R3 (human). Description: fluorescence anisotropy. (Polarisation of emitted light reports the rotation of a fluorescent probe.)
The subject of series [4] is EPRS linker R2R3 (human). Kind of series: fluorescence anisotropy.

A word on the Kd: it is the concentration at which binding is half-saturated.

Consider bovine tRNATrp, for which the equilibrium dissociation constant (Kd) in series [1] was determined as 511 nM.

Regarding human tRNAGlu, the Kd in series [1] is 886 nM.

Turning to human tRNALys3, the Kd in series [1] is 589 nM; in series [2] it was 209 nM; in series [3] it was 43 nM; in series [4] it was over 10000 nM.

For human tRNAPro, in series [1], the Kd stood at 449 nM.

Values taken from article PMC9967848.
